# Laboratory results published in the RNAGym collection of RNA variant scans (doi:10.7554/elife.80360).
# B1: Twister Ribozyme (parent)
# chain: AACACUGCCAAUGCCGGUCCCAAGCCCGGAUAAAAGUGGAGGGGGCGG
# Variants of: B1
# Assay: self-cleavage, relative activity (ratio to wild type); higher = more cleavage; co-transcriptional
row,Variant,self-cleavage
1,AACACUGCCAAUGCCGGUCCCGAGCCCGGAUAAGAGUGGAGGGGGCGG,0.0987
2,AACACUGCCAAUGCCGGUCCCGAGCCCGGAUAAUAGUGGAGGGGGCGG,0.096
3,AACACUGCCAAUGCCGGUCCCGAGCCCGGAUAAAGGUGGAGGGGGCGG,0.138
4,AACACUGCCAAUGCCGGUCCCGAGCCCGGAUAAAAGUGGCGGGGGCGG,0.11
5,AACACUGCCAAUGCCGGUCCCGAGCCCGGAUAAAAGUGGGGGGGGCGG,0.588
6,AACACUGCCAAUGCCGGUCCCGAGCCCGGAUAAAAGUGGUGGGGGCGG,0.138
7,AACACUGCCAAUGCCGGUCCCGAGUCCGGAUAAAAGUGGAGGGGGCGG,0.131
8,AACACUGCCAAUGCCGGUCCCGAGCACGGAUAAAAGUGGAGGGGGCGG,0.0908
9,AACACUGCCAAUGCCGGUCCCGAGCGCGGAUAAAAGUGGAGGGGGCGG,0.0488
10,AACACUGCCAAUGCCGGUCCCGAGCCAGGAUAAAAGUGGAGGGGGCGG,0.0974
11,AACACUGCCAAUGCCGGUCCCGAGCCCGGAUAAAAGUGGAGGGGGUGG,0.286
12,AACACUGCCAAUGCCGGUCCCGACCCCGGAUAAAAGUGGAGGGGGCGG,0.0998
13,AACACUGCCAAUGCCGGUCCCGAGCCCGUAUAAAAGUGGAGGGGGCGG,0.183
14,AACACUGCCAAUGCCGGUCCCGAGCCCGGAUAAAAAUGGAGGGGGCGG,0.0781
15,AACACUGCCAAUGCCGGUCCCGAGCCCGGAUAAAAUUGGAGGGGGCGG,0.105
16,AACACUGCCAAUGCCGGUCCCGAGCCCGGAUAAAAGUCGAGGGGGCGG,0.0945
17,AACACUGCCAAUGCCGGUCCCGAGCCCGGAUAAAAGUGCAGGGGGCGG,0.0779
18,AACACUGCCAAUGCCGGUCCCGAGCCCGGAUAAAAGUGGAAGGGGCGG,0.0888
19,AACACUGCCAAUGCCGGUCCCGAGCCCGGAUAAAAGUGGAUGGGGCGG,0.119
20,AACACUGCCAAUGCCGGUCCCGAGCCCGGAUAAAAGUGGAGUGGGCGG,0.0653
21,AACACUGCCAAUGCCGGUCCCGAGCCCGGAUAAAAGUGGAGGAGGCGG,0.0968
22,AACACUGCCAAUGCCGGUCCCGAGCCCGGAUAAAAGUGGAGGGAGCGG,0.315
23,AACACUGCCAAUGCCGGUCCCGAGCCCGGAUAAAAGUGGAGGGCGCGG,0.225
24,AACACUGCCAAUGCCGGUCCCGAGCCCGGAUAAAAGUGGAGGGUGCGG,0.243
25,AACACUGCCAAUGCCGGUCCCGAGCCCGGAUAAAAGUGGAGGGGACGG,0.277
26,AACACUGCCAAUGCCGGUCCCGAGCCCGGAUAAAAGUGGAGGGGUCGG,0.143
27,AACACUGCCAAUGCCGGUCCCGAGCCCGGAUAAAAGUGGAGGGGGCGA,0.246

row,Variant,self-cleavage
1,AACACUGCCAAUGCCGGUCCCGAGCCCGGAUAAAAGUGGAGGGGGCGC,0.318
2,AACACUGCCAAUGCCGGUCCCGAGCCCGGAAAAAAGUGGAGGGGGCGG,0.196
3,AACACUGCCAAUGCCGGUCCCGAGCCCGGACAAAAGUGGAGGGGGCGG,0.304
4,AACACUGCCAAUGCCGGUCCCGAGCCCGGAUAAAAGAGGAGGGGGCGG,0.152
5,AACACUGCCAAUGCCGGUCCCGAGCCCGGAUAAAAGGGGAGGGGGCGG,0.0844
6,AACACUGCCAAUGCCGGUCCCUAGCCCGGAUAAAAGUGGAGGGGGCGG,0.879
7,AACACUGCCAAUGCCGGUCCCUGGCCCGGAUAAAAGUGGAGGGGGCGG,0.0873
8,AACACUGCCAAUGCCGGUCCCUAGCCCGGGUAAAAGUGGAGGGGGCGG,0.783
9,AACACUGCCAAUGCCGGUCCCUAGCCCGGUUAAAAGUGGAGGGGGCGG,0.999
10,AACACUGCCAAUGCCGGUCCCUAGCCCGGAUACAAGUGGAGGGGGCGG,0.737
11,AACACUGCCAAUGCCGGUCCCUAGCCCGGAUAUAAGUGGAGGGGGCGG,0.698
12,AACACUGCCAAUGCCGGUCCCUAGCCCGGAUAAGAGUGGAGGGGGCGG,0.535
13,AACACUGCCAAUGCCGGUCCCUAGCCCGGAUAAAGGUGGAGGGGGCGG,0.583
14,AACACUGCCAAUGCCGGUCCCUAGCCCGGAUAAAAGUGGUGGGGGCGG,0.128
15,AACACUGCCAAUGCCGGUCCCUAGUCCGGAUAAAAGUGGAGGGGGCGG,0.513
16,AACACUGCCAAUGCCGGUCCCUAGCACGGAUAAAAGUGGAGGGGGCGG,0.11
17,AACACUGCCAAUGCCGGUCCCUAGCUCGGAUAAAAGUGGAGGGGGCGG,0.103
18,AACACUGCCAAUGCCGGUCCCUAGCCGGGAUAAAAGUGGAGGGGGCGG,0.0668
19,AACACUGCCAAUGCCGGUCCCUAGCCUGGAUAAAAGUGGAGGGGGCGG,0.692
20,AACACUGCCAAUGCCGGUCCCUAGCCCGGAUAAAAGUGGAGGGGGUGG,0.773
21,AACACUGCCAAUGCCGGUCCCUAACCCGGAUAAAAGUGGAGGGGGCGG,0.0776
22,AACACUGCCAAUGCCGGUCCCUAGCCCAGAUAAAAGUGGAGGGGGCGG,0.485
23,AACACUGCCAAUGCCGGUCCCUAGCCCUGAUAAAAGUGGAGGGGGCGG,0.736
24,AACACUGCCAAUGCCGGUCCCUAGCCCGUAUAAAAGUGGAGGGGGCGG,0.66
25,AACACUGCCAAUGCCGGUCCCUAGCCCGGAUAAAAUUGGAGGGGGCGG,0.074
26,AACACUGCCAAUGCCGGUCCCUAGCCCGGAUAAAAGUCGAGGGGGCGG,0.779
27,AACACUGCCAAUGCCGGUCCCUAGCCCGGAUAAAAGUGCAGGGGGCGG,0.115
